Source: IntAct's records for PubMed 20974926

B1: Eukaryotic peptide chain release factor GTP-binding subunit (Schizosaccharomyces pombe (strain ATCC 38366 / 972)), O74718 (parent)
chain: MASNQPNNGEQDEQLAKQTSKLSMSAKAPTFTPKAAPFIPSFQRPGFVPVNNIAGGYPYAQYTGQGQNSNSPHPTKSYQQYYQKPTGNTVDEDKSRVPDFSKKKSFVPPKPAIPKGKVLSLGGNTSAPKSTKPISISLGGTKAPTTTKPAAPAAQSKTETPAPKVTSESTKKETAAPPPQETPTKSADAELAKTPSAPAAALKKAAEAAEPATVTEDATDLQNEVDQELLKDMYGKEHVNIVFIGHVDAGKSTLGGNILFLTGMVDKRTMEKIEREAKEAGKESWYLSWALDSTSEEREKGKTVEVGRAYFETEHRRFSLLDAPGHKGYVTNMINGASQADIGVLVISARRGEFEAGFERGGQTREHAVLARTQGINHLVVVINKMDEPSVQWSEERYKECVDKLSMFLRRVAGYNSKTDVKYMPVSAYTGQNVKDRVDSSVCPWYQGPSLLEYLDSMTHLERKVNAPFIMPIASKYKDLGTILEGKIEAGSIKKNSNVLVMPINQTLEVTAIYDEADEEISSSICGDQVRLRVRGDDSDVQTGYVLTSTKNPVHATTRFIAQIAILELPSILTTGYSCVMHIHTAVEEVSFAKLLHKLDKTNRKSKKPPMFATKGMKIIAELETQTPVCMERFEDYQYMGRFTLRDQGTTVAVGKVVKILD
partner: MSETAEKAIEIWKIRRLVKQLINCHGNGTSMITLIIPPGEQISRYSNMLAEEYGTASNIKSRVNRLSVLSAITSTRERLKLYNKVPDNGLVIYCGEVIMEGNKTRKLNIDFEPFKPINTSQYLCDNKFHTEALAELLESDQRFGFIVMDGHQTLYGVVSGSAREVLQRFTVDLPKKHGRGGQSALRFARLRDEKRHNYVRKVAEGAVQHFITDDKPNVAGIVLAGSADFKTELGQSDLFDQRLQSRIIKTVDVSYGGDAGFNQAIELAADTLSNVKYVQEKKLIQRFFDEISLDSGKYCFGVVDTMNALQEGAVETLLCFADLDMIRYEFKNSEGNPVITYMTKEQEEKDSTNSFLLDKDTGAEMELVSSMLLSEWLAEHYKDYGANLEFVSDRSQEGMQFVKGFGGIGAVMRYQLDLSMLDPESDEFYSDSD
B2: Elongation factor 1-alpha (Aeropyrum pernix (strain ATCC 700893 / DSM 11879 / JCM 9820 / NBRC 100138 / K1)), Q9YAV0 (parent)
chain: MAEKPHMNLVVIGHVDHGKSTLVGHLLYRLGYIEEKKLKELEEQAKSRGKESFKFAWILDKMKEERERGITIDLTFMKFETKKYVFTIIDAPGHRDFVKNMITGASQADAAILVVSARKGEFEAGMSTEGQTREHLLLARTMGIEQIIVAVNKMDAPDVNYDQKRYEFVVSVLKKFMKGLGYQVDKIPFIPVSAWKGDNLIERSPNMPWYNGPTLVEALDQLQPPAKPVDKPLRIPVQNVYSIPGAGTVPVGRVETGVLRVGDKVVFMPPGVVGEVRSIEMHYQQLQQAEPGDNIGFAVRGVSKSDIKRGDVAGHLDKPPTVAEEFEARIFVIWHPSAITVGYTPVIHVHTASVSSRIIEIKAKLDPKTGQVVEQNPQFLKAGDAAIVRFKPVKPLVVEKFSEIPQLGRFAMRDMNRTVGIGIVTDVKPAKVDIKAK
partner: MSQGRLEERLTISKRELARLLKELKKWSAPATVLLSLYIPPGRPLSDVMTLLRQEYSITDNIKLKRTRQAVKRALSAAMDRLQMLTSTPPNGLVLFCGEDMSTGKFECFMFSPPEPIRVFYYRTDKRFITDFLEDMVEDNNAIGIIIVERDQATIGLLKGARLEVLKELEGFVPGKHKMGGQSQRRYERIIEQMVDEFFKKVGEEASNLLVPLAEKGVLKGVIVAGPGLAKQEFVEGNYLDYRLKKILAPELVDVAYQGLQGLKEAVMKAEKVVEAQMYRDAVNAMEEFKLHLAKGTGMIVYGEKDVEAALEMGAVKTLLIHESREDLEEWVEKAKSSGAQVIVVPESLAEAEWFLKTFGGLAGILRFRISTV
B3: Eukaryotic peptide chain release factor subunit 1 (Schizosaccharomyces pombe (strain ATCC 38366 / 972)), P79063 (parent)
chain: B1 partner
partner: B1 chain
B4: Peptide chain release factor subunit 1 (Aeropyrum pernix (strain ATCC 700893 / DSM 11879 / JCM 9820 / NBRC 100138 / K1)), Q9YAF1 (parent)
chain: B2 partner
partner: B2 chain

Variants of: B1
Conditions: with erf1_schpo sup45, P79063

Variant	effect of a mutation on the interaction
T294A	decreasing interaction
Y477A	disrupting interaction
Y329A	disrupting interaction
E297A	decreasing interaction
E305A	decreasing interaction

Variants of: B2
Conditions: with rf1_aerpe prf1, Q9YAF1

Variant	effect of a mutation on the interaction
F379A	disrupting interaction
D73A	decreasing interaction
E64A	disrupting interaction
S337A	disrupting interaction
A338S	disrupting interaction
E65A	decreasing interaction

Variants of: B3
Conditions: with erf3_schpo sup35, O74718

Variant	effect of a mutation on the interaction
L173A	decreasing interaction
K176A	decreasing interaction

Variants of: B4
Conditions: with ef1a_aerpe tuf

Variant	effect of a mutation on the interaction
F359A	disrupting interaction
L293A	disrupting interaction
E168A	decreasing interaction
W354A	disrupting interaction
G228A	disrupting interaction
K290A	disrupting interaction
